Like-named read-outs stand apart in the source and are kept apart here.
Assays:
[1] = biological target: the molecule itself; assay: small angle neutron scattering
[2] = biological target: the molecule itself; assay: small angle neutron scattering; remark: listed apart in the source

B1: 17H6 (other)
chain: MGHHHHHHHHHHSSGHIHMAAAQEAAAAQAAAQAEAAQAAQAAAQEAAAAQAAAQAEAAQAAQAAAQEAAAAQAAAQAEAAQAAQAAAQEAAAAQAAAQAEAAQAAQAAAQEAAAAQAAAQAEAAQAAQAAAQEAAAAQAAAQAEAAQAAQAGGYGGMG
[1]
  stoichiometry N: 266 ± 3
[2]
  stoichiometry N: 171 ± 2

Reference: publication PMC3769986 (Soft matter, 2011)
